Test: soluble on expression in E. coli; label from the status in PepcDB or PDB records

Q: With “MGSDKIHHHHHHMRCPWRKTRRHSDNGWYGPRNQIRPDDHRLHRKVRKSRGDSRRAGNGSPRARCFEGAQRRGKSDGLSECGRMKNLLEMVELVRGKRMKIAVGAAEDEEVLKAVARAKEEEIVDPVLFGKRKDIETLVERMNLELEAEIVHVEDPFEAVRKAVESVSRNETQILMKGKIKTSDLFSVFLKKEYGLRTGRTLSAVSVHEVPGYHKILIISDGGLVISPNLQQRMDIVENSILVARALGIEKPKIALLGTGDLKSPLTLEIAALSKIFQQRNDCIVDGPLTLDLAISEELASKAGNSPVAGDADILIVPSIETGNILSKSLVYMARGRAAIVVVGGRVPVVLTSRADDEETRFLSIALSVLVAQKKG” as the sequence, how does the “soluble on expression in E. coli” value read?
A: not soluble

Q: For “MGSDKIHHHHHHMRDHVEIGIGREARRTYSLDDISVVSSRRTRSSKDVDTTWHIDAYKFDLPFMNHPSDALASPEFVIEMGKQGGLGVINAEGLWGRHADLDEAIAKVIAAYEEGDQAAATRTLQELHAAPLDTELLSERIAQVRDSGEIVAVRVSPQNVREIAPIVIKAGADLLVIQGTLISAEHVNTGGEALNLKEFIGSLDVPVIAGGVNDYTTALHMMRTGAVGIIVGGGENTNSLALGMEVSMATAIADVAAARRDYLDETGGRYVHIIADGSIENSGDVVKAIACGADAVVLGSPLARAEEAAGKGYFWPAVAAHPRFPRGVVTESVDLDEAAPSLEQILHGPSTMPWGVENFEGGLKRALAKCGYTDLKSFQKVSLHVN”, which “soluble on expression in E. coli” value is on record?
A: not soluble

Q: For “MGSDKIHHHHHHMREIAASRISAVLAELIVKISTELGEDILTALHKAYEAEESPAGRDILQSLLENARIAKEKKIPLCQDTGTAIVFAEVGQEVHVTGNFTDAINLGVRQGYEQAYLRKSIVSHPFSKRINTNDNTPAVIHTEIVPGDRLKISFMAKGSGAENMSRLFMLKPGVGREGVIEAVLETVEKAGGSPCPPIIIGLGVGATAEKAMFMAKKALLRPLGITHTDPEVAALETEVLKQVNKLGIGPLGLGGRVTALGVMAETAPTHIASLPVAVNLQCHSARHGEAVL”, which “soluble on expression in E. coli” value is on record?
A: not soluble

Q: With “MGSDKIHHHHHHMREIEHAKYSRLKNAIYKDASVALLTQHGKEKVVTPILASAIGCEVTLVTGFDTDQLGTFTRDIPRAGTQIEAARKKARIGMELAHLPLGLASEGSFGPDPFTGLFSLNVEMVVWIDDTLGIEVVGVASGRTNFSHLLAANWEQAEAFARAIDFPEHGIVVRPRHEDDSRVRKGIADWESLREAFFWACGEADNGCVFLETDVRAHMNPMRMEIIASATRDLADKLATPCPVCNTPGFQIVERVPGLPCEGCGAPTRDTWADIHRCGRCGHQVALERLEKAAPAGHCDWCNP” as the sequence, how does the “soluble on expression in E. coli” value read?
A: not soluble

Q: Which “soluble on expression in E. coli” value does the source give for “MGSDKIHHHHHHMRELPPLDLYETEAAERAGMAAGEPSAGDVELPAEPLLAGEARGQPFTRQSVAPLATIDLSTVPADDVTPRRWIVPDLIPDRNVTDISGDGGLGKSLLALQLGIAMAAGRDWLGTMPEPGGFLYVSCEDEPNEVLRRRNAVLAGMGLTPGDIRNLYLADLTDAEGTELAAPGKAALELTALHHRFEVTIRQLRPKCAVLDTRADVFGGNELSRVQVRMFVRSLRRLCIAHDMAIILLSHPSVSGMASGSGQSGSTGWGNSVRSRLYLTAPKSEGDTDLDPDIRILSSKKANYGPHGAEIVLRWDRGMFRPDRDALASLDRDQQDREIEVTFLQLLSKREKEGRRANASSGPNYAPKVLAEMNGTISRAKFRGAMERLFAKEEIASVSYEANGKGSTQLVLTDKGMSRLRIPF” here?
A: not soluble

Q: With “MGSDKIHHHHHHMRHLKAFYVFHVTAESSNYSKAAEKLHITHGAVSKQIKLLESHLSQMLFYKQGRGMCLTQEGELLKQYTDIAFNALDNGIKKLTRESNKHLEVSCEPTLTMRWLMPRLASFFRLTGIDVRLSTAGGPVDLNETGLSLAIRRDDFDISPEYTAHNLVNEWVGPVFSPEYWRKSQNNLGDIVLLHSETRPSAWSDWSSRSKHTFYTNKSKSFEHFYFCLQAAVDGLGAAIGSYPLIVDDLKSGRLVAPFGFTQSGHKYVLLSHTERLGSNELEFLTWLEKTMSLCQPETP” as the sequence, how does the “soluble on expression in E. coli” value read?
A: not soluble

Q: With “MGSDKIHHHHHHMRIALVTNTFLPLTGGGEFVVHHLGNQWSMQGHDVCVFNSLTAEVAHPEALYKVMRYKIMRGATRFGYHRFPWVNVSTRSLNRQINYFNPDFVSGHFSIPVALYLDNLKPKRIWSITSHGSDIVRNDVNSQRDQYDIDNKLANSLNNASSVIAISNSAKANLLDIGVKPSLIRVIPNGVELNRFKTKANTNIREMFNIPEHKKLVLTVGRNSLVKNLGLGINAVAEIAKSRSDIHYLIVGGGTSQLNETIINRGLRDTVTTCENLAGESLVAAYQQSDIFLSTSNYECCPLVILEAMASGLPIVATQVAGNVDLIDNEVNGLLVGRNNHMHIVNAITMLIADKRLCHSISTTNYDKVSDYSWDTVSRSYLELLQ” as the sequence, how does the “soluble on expression in E. coli” value read?
A: not soluble

Q: For “MGSDKIHHHHHHMRILFVTEYYPPIHMGGAEISLKILVNKLAKLGHEVTVITPNYTKYKTETEISKNLRVIRFKSWRYFLFKKQLRKISSEIYLRKKSSYYFQLNGYIKLSSFEIMKVVKELLQKEDFDVIHANNLESILGLSKLQVNTKVAHLRDFALLCWNRGLNNNGKLCEGCSLTNIRQCMGANYILGSALVHEINKRKNVLGKFDKILAISNFVKMEFVKRLNIPTEKISVLYNPITQEIVSNISKEEARQYLNLPEDKTIVLFVGTLTELKGAHLIPKIAKELPEHLFVVVGDGPLRKMFTEFPLENVLYVGYQPMEILRHYYKASDILLVPSLWHEPFGRVIIEGAANGCYVVGSDKGAIPEIIHWIGYGTSVPPQSKYFVEAIKNAPQTTKHEKLKIKIINYSHKYAEKFIKAIME”, which “soluble on expression in E. coli” value is on record?
A: not soluble

Q: For “MGSDKIHHHHHHMRKAERLNDMMLFLNDKNSFQLSDIMAKYGVSRSTAIRDIQSLEEIGMPIYSERGRNGHYRVLRNRLLSPIVFNIDEVFALYFSMLTLKAYETTPFHLSVEKLKTKFERCLSAEKIEMLRKIEEVFSLGYIKHNNQCEFLDVILQFTMEEKVCQINYDNNGTEKTYIVQFYNISSAYGQWYVTSYNFETKRMQVFRCDKILALKENDTFEAKKMEELKGVADSFNKKADVTTFEVEIASNGVDLFFKENYPSMKLRQQEGRNCIHGFYHKGEERFIINYLLGYGEKIIAIQPDSLRDMLLNELDTIKKHMQNLSS”, which “soluble on expression in E. coli” value is on record?
A: not soluble

Q: With “MGSDKIHHHHHHMRKMMNEQLPISKSSPLKARFYDYPYFTYPWHFHTEYEIIYVKEGTGMRFVGNNAEKYADGDILLLGSDLPHYMKSDEVYRQEGSTLRTTGTIIQFEKDFMHHAFNYYPHFMKIKNLLEEAQRGIYFPAGCSPRLVDLLESIPVETGVDQITSFLQLLKEMANVASRSVLSTSDFENDIIYDGSRIDKIIVYLNKNYTRQIDLNEISSLAAMNPAAFCRFFKSKTGKSFKNYILEMRIGYACKLLLMGDMNISQISVECGFDTISHFNKSFKKHTGFTPSYYKRMMLAE” as the sequence, how does the “soluble on expression in E. coli” value read?
A: not soluble

Q: With “MGSDKIHHHHHHMRKWISYPHREGTISRQAHADFPAEAIYEREVGRSGFFGPATHLHHKHPPTAWSAWEGPLRPRAYDLNELPHGTPAPWDAPLVLHNAQCKLRIWRCDQAMTQLSRNADGDDLLFIHGGSGELFCDYGHLSYRDGDYILVPRSTSWRIEPASPTTMLLIETSNGAYQLPEKGLVGPHAIFDEAVLDVPAIDDAFKAQQTEDEWQVVIKRRGALSTVTYPYNPLDAIGWHGNLSVARVNWRDIRPLMSHRYHLPPSAHTTFVADGFVICTFVPRPIESDPGALKVPFYHNNDDYDEVIFYHAGDFFSRDNIKPGMLTFHPAGFTHGPHPKAFAKAMTDPKTFTDEVAVMIDARDALEQGPGLAGVEWQGYVDSWKPKQA” as the sequence, how does the “soluble on expression in E. coli” value read?
A: not soluble

Q: Which “soluble on expression in E. coli” value does the source give for “MGSDKIHHHHHHMRLPDAGFRRYIVVAGRRNVGKSSFMNALVGQNVSIVSEYAGTTTDPVYKSMELYPVGPVTLVDTPGLDDVGELGRLRVEKARRVFYRADCGILVTDSEPTPYEDDVVNLFKEMEIPFVVVVNKIDVLGEKAEELKGLYESRYEAKVLLVSALQKKGFDDIGKTISEILPGDEEIPYLGDLIDGGDLVILVVPIDLGAPKGRLIMPQVHAIREALDREAIALVVKERELRYVMENIGMKPKLVITDSQVVMKVASDVPEDVELTTFSIVESRYRGDLAYFVESVRKIEELEDGDTVVIMEGCTHRPLTEDIGRVKIPRWLVNHTGAQLNFKVIAGKDFPDLEEIEGAKLIIHCGGCVLNRAAMMRRVRMAKRLGIPMTNYGVTISYLHGVLDRAIRPFREEVKV” here?
A: not soluble

Q: Which “soluble on expression in E. coli” value does the source give for “MGSDKIHHHHHHMRPAPSIVEVVAAIIIGSDGSFLLARRPEGKPYAGYWEFPGGKVNPEESLLRALKRELLEELGIHVKHAYPWITRTFTYPHARVRLHFYRVVEWHGEPHPHEDQELSWQFADNVSVEPLLPANAPVLRALALPPVYGITNAAEWGPQIAAARIGHALQKGLRLVQLREKGMRSKALDAFAREVTALAHHYGARILVNSGTGNESLCQELDMDGIHFTSADLMNLSKRPDVEWCAASCHNAEELFRAEQLEMDFAVLAPVLPTLSHPDSPVLGWRKLARIIHGSAIPVYALGGLQSEDLAIAWEHGAHGIALMRRIEQVRGTGQKA” here?
A: not soluble

Q: With “MGSDKIHHHHHHMRPIKNAKKIDYNLIKVFDTVITEGNATRAARKLDVTPAAISQALLRLQNLYGEELFIRTRKGLVPSSKGKSLHQVFRQAIESIESTLCDKTDAQESNELIVLGGDITENYYFPALLDTVLMNRYIIKHYAIKKTGEYSPASMLTHGYADVIMGILEIKNEMIESYLIDNLSDFVCVCGEKSPLVGLEKMSLYNFYAARHAVYHSDMFSSFTADSIDLFKSSTPYAGRREIGYYSDSLFGVIDIVEKSDMVAILPGKIATYFRDVRRYNIKILRMPDEMIFRTLPVYAYLATNSTHYKNVKKLISTFQSTFLFSQEKQPDALVEGSTSLCDLSV” as the sequence, how does the “soluble on expression in E. coli” value read?
A: not soluble

Q: With “MGSDKIHHHHHHMRPRILLYTGKGGVGKTSIAAATGALLSSKGHKTLIISTDPAHSLGDAFGMEIGHSIKQLADNLYGQEVSVVQSINEHWGELKDYLRSLFLSQGLDPVSADEIATLPGFEEASELLYLRNYYYDEEYDTIIMDSAPTGAALQLLSFPEVMTWYMDKLFPISRKTARVARPLLKPFVDIPLPEDAVFENIDLLYRQLTDIRKILTNNDVTSIRLVTNPDNMSYSETKRAYTYLLLYGYPVDAVIINKILSDETGDFFEKMRGSQKDIITEMENSFVDIKIFKARLLQEEPIGIKKLIELGKLIYGDEDPYKVFYKGTPIKYTKNGDRYILKIKMPFAEKEKLNLFNHGGELTIEIANWKRVFYLPESISDKRPVSAEYSNGYLNVILE” as the sequence, how does the “soluble on expression in E. coli” value read?
A: not soluble

Q: With “MGSDKIHHHHHHMRQFAKPTIVVSKCLEFDACRYNGEMIPDVTIRNLQPFVTFIPVCPEVEIGLGTPRETIRIVEEKGVNKLMQPSTREDLTGKMEQFSNKFLQTISDVDGFILKNRSPSCGTRDVKIYSGFEKAPAKGKGPGLFGGAVIKNFSHLPIEEEGRLSNFIIREHFLTRLFTIAYYKMMKRNKNMKDLVSFQSDNKYLFMAYNQVKQKELGRIIANHKNEKIEVVFENYEKTLYELFMRTPRYTSNVNVCEHIFGYFKTKLKKQEKDHFLDLIQKYKEKKIPLSSLLAILKSWALRFDEKYLLRQTYFEPYPEALVEISDSGKGRDY” as the sequence, how does the “soluble on expression in E. coli” value read?
A: not soluble

Q: Which “soluble on expression in E. coli” value does the source give for “MGSDKIHHHHHHMRRIRTLLSKKPSKLVFNLRKYAAFRQAWKSINVNRTSYSKTRRHYDAVVIGSDEVWNIQNPTFAMMPEYFGRGLNAKNIITYAPSSSKTTYADVAQNPLLAEGMRNIHHFSARDRNTFEIVEKIVNKPVTMVLDPTFLVEYDEEVEEAGVNSHGYVLVYTYQFDRLKIEKTRRFARSRGLRLISPCFYNDWCDEVVPCTPFGFLGLIRDAEYVVTDTFHGSIFSILYGKHFGSYASEKIKVAALLSALGLADRELGGVDDIGSVLDARIDYGRVRTCIEQERDVSLNYLRQALAPAG” here?
A: not soluble

Source: the DeepSol protein solubility set
